Experimental data published in US20220002432A1 (VIRTUOSO BINCO, published 2022).

T1: Rhesus-ICAM1 (rhesus, UniProt Q5NKV6 28-480, limits assumed)
T1 sequence (looked up): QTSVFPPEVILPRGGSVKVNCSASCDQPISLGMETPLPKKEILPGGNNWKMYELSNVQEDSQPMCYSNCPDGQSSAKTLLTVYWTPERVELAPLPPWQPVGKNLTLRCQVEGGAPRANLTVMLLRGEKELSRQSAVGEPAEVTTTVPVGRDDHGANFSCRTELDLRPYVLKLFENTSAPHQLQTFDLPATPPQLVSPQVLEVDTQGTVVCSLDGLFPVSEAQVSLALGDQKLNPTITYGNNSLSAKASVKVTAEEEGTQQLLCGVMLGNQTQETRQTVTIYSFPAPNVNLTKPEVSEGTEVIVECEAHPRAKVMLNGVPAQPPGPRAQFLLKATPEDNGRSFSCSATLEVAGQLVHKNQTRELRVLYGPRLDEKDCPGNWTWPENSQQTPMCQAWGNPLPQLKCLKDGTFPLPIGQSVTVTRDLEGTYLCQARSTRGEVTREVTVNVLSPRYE


What was measured:
[1] = target: T2, ICAM1 on the surface of DU145 cells (human, UniProt P05362 28-532); assay: flow cytometry, DU145 cells;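 further: purified antibodies in dilution series bound to cells for 1 h at 4 °C, detected with a fluorescent secondary antibody (1 h, 4 °C, dark), read by flow cytometry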
T2 construct: whole, on cells
T2 sequence (P05362 28-532): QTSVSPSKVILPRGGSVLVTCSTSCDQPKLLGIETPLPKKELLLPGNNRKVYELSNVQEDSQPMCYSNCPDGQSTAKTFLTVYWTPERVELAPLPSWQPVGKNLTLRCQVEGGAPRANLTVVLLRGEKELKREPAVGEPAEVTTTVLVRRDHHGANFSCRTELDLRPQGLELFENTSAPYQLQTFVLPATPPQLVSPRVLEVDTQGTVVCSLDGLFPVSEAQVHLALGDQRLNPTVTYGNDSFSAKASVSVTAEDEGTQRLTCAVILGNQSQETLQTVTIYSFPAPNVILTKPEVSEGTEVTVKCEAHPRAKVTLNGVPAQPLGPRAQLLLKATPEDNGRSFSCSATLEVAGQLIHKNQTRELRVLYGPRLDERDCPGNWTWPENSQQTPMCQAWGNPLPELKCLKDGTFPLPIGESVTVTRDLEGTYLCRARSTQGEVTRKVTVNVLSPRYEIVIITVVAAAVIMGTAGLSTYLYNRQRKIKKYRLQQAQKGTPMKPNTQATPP
Method: Harvested cells were centrifuged at 2000 rpm for 5 min and resuspended with 10-15 ml ice-cold culture medium. Cells were counted and then 3×10⁶ cells were resuspended per mL of blocking buffer (PBS plus 2% FBS). 100 μl of the cell suspension was dispensed into each well of a 96-well plate and incubated at room temperature for 10-20 min. […] While incubating, purified antibodies were diluted to the desired dilution with blocking buffer. After a 10-20 minutes incubation, cells were centrifuged for 5 min at 2000 rmp in a refrigerated centrifuge. Blocking buffer was aspirated, and cells were resuspended in 100 μl/well diluted antibodies and incubated for 1 hour at 4° C. The cells were then washed 3 times with PBS plus 2% FBS. After the final wash, the cells were resuspended in 100 μl 1:500 diluted secondary antibody (Invitrogen, Cat #: A10631) and incubated for 1 hour at 4° C. in the dark. The cells were then washed 3 times with 200 μl PBS by centrifuging at 2000 rpm for 5 min. After the last wash, the cells were resuspended in 300 μl cold PBS and analyzed on a FACSVerse™ (BD Biosciences) flow cytometer.

recombinant human ICAM1 [2] = target: T3, recombinant human ICAM1 (human, UniProt P05362 28-480, limits assumed); assay: ELISA: plate coated with 1 ug/ml recombinant human ICAM1 ECD, serially diluted antibody, OD450
T3 sequence (P05362 28-480 limits assumed): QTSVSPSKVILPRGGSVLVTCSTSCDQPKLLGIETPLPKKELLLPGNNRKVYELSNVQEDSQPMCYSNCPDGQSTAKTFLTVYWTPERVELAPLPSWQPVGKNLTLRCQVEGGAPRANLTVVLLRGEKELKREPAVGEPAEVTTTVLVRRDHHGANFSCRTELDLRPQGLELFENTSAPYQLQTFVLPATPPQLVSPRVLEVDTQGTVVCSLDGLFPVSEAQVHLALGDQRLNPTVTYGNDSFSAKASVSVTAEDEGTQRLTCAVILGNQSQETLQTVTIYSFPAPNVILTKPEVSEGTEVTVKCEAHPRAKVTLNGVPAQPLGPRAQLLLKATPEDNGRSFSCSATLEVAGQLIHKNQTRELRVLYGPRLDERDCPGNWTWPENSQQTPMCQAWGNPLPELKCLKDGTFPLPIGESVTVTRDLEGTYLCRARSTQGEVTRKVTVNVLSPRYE
Method: (§1) The plate was coated overnight at 4° C. with 1 μg/ml recombinant CD38 or ICAM1. After washing 3 times, the plate was blocked with 300 μl 1% BSA in PBST at 37° C. for 1 hour. Serially diluted antibodies were added and incubated at 37° C. for 1 hour. The plate was then washed 4 times with PBST and incubated with 1:5000 diluted 2nd antibody (Sigma, Cat #A0293) at 37° C. for 1 hour.

Rhesus-ICAM1 [3] = target: T1, Rhesus-ICAM1; assay: SPR (Biacore 8K), antibody captured, antigen injected
Method: (§2) The binding kinetics of the anti-CD38 and anti-ICAM1 antibodies were evaluated on a Biacore 8K instrument (GE Healthcare). Biacore Series S CM5 sensor chips were immobilized with monoclonal mouse anti-human IgG (Fc) antibody (human antibody capture kit from GE Healthcare). Antibodies were captured on each flow cell. Serial 3-fold dilutions of each antigen were injected at a flow rate of 30 μl/min. Each sample was analyzed with 1 min association and 10 min dissociation at room temperature (25° C.). After each injection, the chip was regenerated using 3M MgCl₂. A 1:1 Langmuir model of simultaneous fitting of kₒₙ and koff was used for kinetics analysis.

recombinant human ICAM1 [4] = target: T3, recombinant human ICAM1; assay: as above
Method: as §2

Rhesus-ICAM1 [5] = target: T1, Rhesus-ICAM1; assay: ELISA: plate coated with 1 ug/ml recombinant rhesus ICAM1 ECD, serially diluted antibody, OD450
Method: as §1

cynomolgus CD38 ECD = target: T4, cynomolgus CD38 ECD (cynomolgus, UniProt Q5VAN0 44-301, biotinylated on the AviTag during preparation); assay: SPR (Biacore 8K), antibody captured, antigen injected;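 further: antibodies held on a CM5 chip by anti-human IgG Fc, antigen in 3-fold dilution series, 1 min association, 10 min dissociation at 25 °C, 1:1 Langmuir kinetic fit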
T4 construct: also called Cyno-CD38; Avi-Cyno CD38 ECD
Method: as §2

recombinant human CD38 = recombinant human CD38 (human, UniProt P28907 43-300, limits assumed); assay: as above
Method: as §2

Row | Binder | EC50 [1] [nM] | Max Binding MFI [1] [MFI] | EC50 (read off the curve) (recombinant human ICAM1 [2]) [nM] | Kd (Rhesus-ICAM1 [3]) [nM] | koff (Rhesus-ICAM1 [3]) [s⁻¹] | kon (Rhesus-ICAM1 [3]) [M⁻¹ s⁻¹] | Kd (recombinant human ICAM1 [4]) [nM] | koff (recombinant human ICAM1 [4]) [s⁻¹] | kon (recombinant human ICAM1 [4]) [M⁻¹ s⁻¹] | EC50 (read off the curve) (Rhesus-ICAM1 [5]) [nM] | Kd (cynomolgus CD38 ECD) [nM] | koff (cynomolgus CD38 ECD) [s⁻¹] | kon (cynomolgus CD38 ECD) [M⁻¹ s⁻¹] | Kd (recombinant human CD38) [nM] | koff (recombinant human CD38) [s⁻¹] | kon (recombinant human CD38) [M⁻¹ s⁻¹]
1 | 8H1 (antibody, human IgG1, kappa, V domains shown, Rabbit-human chimeric anti-ICAM1: rabbit VH and VL on human IgG1 and kappa constant regions) VH: QSVEESGGRLVTPGTPLTLTCTASGFSLSNYYMSWVRQAPGKGLEWIGIISDSGSTYYASWAKGRFTISKTSTTVDLKITSPTTEDTATYFCARDWSYDSSSGYYYYDMDLWGPGTLVTVSA VL: GYDMTQTPASVEVAVGGTVTIKCQASQSINSWLAWFQHKPGQPPKRLIYKASTLASGVSSRFKGSGSGTQFTLTISGVESADAATYYCQQGYSRSDGEHVFGGGTEVVVKR | 1.82 | 5270 | ~0.04 | 2.92 | 0.00125 | 427000 | 3.1 | 0.000345 | 111000 | ~0.04 | – | – | – | – | – | –
2 | 11G7 (antibody, human IgG1, kappa, V domains shown, Rabbit-human chimeric anti-ICAM1: rabbit VH and VL on human IgG1 and kappa constant regions) VH: QSVEESGGRLVTPGTPLTLTCTVSGFSLSDYYMSWVRQAPGKGLEWIGIISDSGSTYYASWAKGRFTISKTSSTTVDLKITSPTTEDTATYFCARDWSYDSSSGYYYYDMDLWGPGTLVTVSA VL: AYDMTQTPASVEVAVGGTVTIKCQASQSINSWLSWFHQKPGQPPKRLIYKASTLASGVSSRFKGSGSGTQFTLTISGVESADAATYYCQQGYSRSDGEHVFGGGTEVVVKR | 1.04 | 4820 | ~0.04 | 4.28 | 0.000624 | 146000 | 2.65 | 0.000271 | 103000 | ~0.04 | – | – | – | – | – | –
3 | 4H5 (antibody, human IgG1, kappa, V domains shown, Rabbit-human chimeric anti-ICAM1: rabbit VH and VL on human IgG1 and kappa constant regions) VH: QSVEESGGRLVTPGTPLTLTCTASGFSLSNYYMSWVRQAPGKGLEWIGIISDSGTTYYASWAKGRFTISKTSTTVDLKITSPTTEDTATYFCARDWSYDSSSGYYYYDMDLWGPGTLVTVSA VL: GYDMTQTPASVEVAVGGTVTIKCQASQSINSWLVWFQHKPGQPPKRLIYKASTLASGVSSRFKGSGSGTHFTLTISGVESADAATYYCQQGYSRSDGEHVFGGGTEVVVKR | 1.31 | 4720 | ~0.04 | 4.11 | 0.000568 | 138000 | 3.39 | 0.000256 | 75600 | ~0.04 | – | – | – | – | – | –
4 | 14H1 (antibody, human IgG1, kappa, V domains shown, Rabbit-human chimeric anti-ICAM1: rabbit VH and VL on human IgG1 and kappa constant regions) VH: QSVEESGGRLVTPGTPLTLTCTVSGFSLSNYYMSWVRQAPGKGLEWIGIISDSGSTYYASWAKGRFTISKTSTTVDLSITSPTTEDTATYFCARDWSYDSTSGYYYYDMDLWGPGTLVTVSA VL: AYDMTQTPASVEVAVGGTVTIKCQASQSINSWLSWFHQKPGQPPKRLIYKASTLASGVSSRFKGSGSGTQFTLTISGVESADAATYYCQQGYSRSDGEHVFGGGTEVVVKR | 0.591 | 4690 | ~0.04 | 2.25 | 0.000434 | 193000 | 1.62 | 0.000237 | 146000 | ~0.04 | – | – | – | – | – | –
5 | 15D10 (antibody, human IgG1, kappa, V domains shown, Rabbit-human chimeric anti-ICAM1: rabbit VH and VL on human IgG1 and kappa constant regions) VH: QSVEESGGRLVTPGTPLTLTCTASGFSLNNYYMSWVRQAPGKGLEWIGIISDSDNTYYASWAKGRFTISKTSTTVDLKITSPTTEDTATYFCARDWSLDSSSGYYYYDMDLWGPGTLVTVSA VL: AYDMTQTPASMEVAVGGTVTIKCQASQNIHSWLAWFQQKPGQPPKRLIYKASTLASGVPSRFKGSGSGTQFTLTISGVQSDDAATYYCQQGYSRSDGEHVFGGGTEVVVKR | 0.879 | 5000 | ~0.04 | 1.79 | 0.000421 | 236000 | 2.12 | 0.000181 | 85500 | ~0.04 | – | – | – | – | – | –
6 | 4618_1 (antibody, human IgG1, kappa, V domains shown, Human IgG1 with the common anti-HER2 light chain; Library-derived anti-CD38) VH: EVQLLESGGGLVQPGGSLRLSCAASGFPFDVYAMSWVRQAPGKGLEWVSAISGSGGSTFYADSVKGRFTISRDNSKNTLYLQMNSLRAEDTAVYYCAKRGTYAYSFPTGFDYWGQGTLVTVSS VL: not shown | – | – | – | – | – | – | – | – | – | – | 1.68 | 0.00288 | 1.71e+06 | 3.81 | 0.00188 | 494000
7 | 4618_1_12 (antibody, human IgG1, kappa, V domains shown, Human IgG1 with the common anti-HER2 light chain; Library-derived anti-CD38) VH: EVQLLESGGGLVQPGGSLRLSCAASGFPFDVYAMSWVRQAPGKGLEWVSAISGSGGSTFYADSVKGRFTISRDNSKNTLYLQMNSLRAEDTAVYYCAKRGTYAYSYPTGFDYWGQGTLVTVSS VL: not shown | – | – | – | – | – | – | – | – | – | – | 0.62 | 0.00157 | 2.53e+06 | 0.42 | 0.000273 | 657000
8 | 11F2 (antibody, human IgG1, kappa, V domains shown, Rabbit-human chimeric anti-ICAM1: rabbit VH and VL on human IgG1 and kappa constant regions) VH: QSVEESGGGLVKPGGTLTLTCTVSGFSLSSHAMGWVRQAPGKGLEYIGIIGSSDRTYYASWAKGRFTISKTSTTVDLKITSPTTEDTATYFCVRDPYDSYDDGYRLWGPGTLVTVSS VL: AYDMTQTPASVEVAVGGTVTIKCQASQSIYRYLSWYQKKPGQRPKFLIYDASKLASGVPSRFEGSGSGTEFTLTISGAQSDDAATYYCQQAYSSGSIDNAFGGGTEVVVKR | 1.31 | 4060 | ~0.04 | 0.25 | 0.000224 | 914000 | 0.29 | 0.000131 | 456000 | ~0.04 | – | – | – | – | – | –

More lines, now with the values ahead:

Row | EC50 [1] [nM] | Max Binding MFI [1] [MFI] | EC50 (read off the curve) (recombinant human ICAM1 [2]) [nM] | Kd (Rhesus-ICAM1 [3]) [nM] | koff (Rhesus-ICAM1 [3]) [s⁻¹] | kon (Rhesus-ICAM1 [3]) [M⁻¹ s⁻¹] | Kd (recombinant human ICAM1 [4]) [nM] | koff (recombinant human ICAM1 [4]) [s⁻¹] | kon (recombinant human ICAM1 [4]) [M⁻¹ s⁻¹] | EC50 (read off the curve) (Rhesus-ICAM1 [5]) [nM] | Kd (cynomolgus CD38 ECD) [nM] | koff (cynomolgus CD38 ECD) [s⁻¹] | kon (cynomolgus CD38 ECD) [M⁻¹ s⁻¹] | Kd (recombinant human CD38) [nM] | koff (recombinant human CD38) [s⁻¹] | kon (recombinant human CD38) [M⁻¹ s⁻¹] | Binder
9 | – | – | – | – | – | – | – | – | – | – | 1.33 | 0.00168 | 1.26e+06 | 1.68 | 0.000596 | 354000 | 4618_5_12 (antibody, human IgG1, kappa, V domains shown, Human IgG1 with the common anti-HER2 light chain; Library-derived anti-CD38) VH: EVQLLESGGGLVQPGGSLRLSCAASGFPFDAYAMSWVRQAPGKGLEWVSAISGSGGSTYYADSVKGRFTISRDNSKNTLYLQMNSLRAEDTAVYYCAKRGTYAYSYPTGFDYWGQGTLVTVSS VL: not shown
10 | – | – | – | – | – | – | – | – | – | – | 12.4 | 0.0155 | 1.25e+06 | 38.2 | 0.0116 | 304000 | 32018_7 (antibody, human IgG1, kappa, V domains shown, Human IgG1 with the common anti-HER2 light chain; Library-derived anti-CD38) VH: EVQLLESGGGLVQPGGSLRLSCAASGFPFGTYAMSWVRQAPGKGLEWVSAISGSGGSTFYADSVKGRFTISRDNSKNTLYLQMNSLRAEDTAVYYCAKRGTYGYSFPTGFDYWGQGTLVTVSS VL: not shown
11 | – | – | – | – | – | – | – | – | – | – | 1.65 | 0.00253 | 1.53e+06 | 1.79 | 0.00077 | 430000 | 4618_12 (antibody, human IgG1, kappa, V domains shown, Human IgG1 with the common anti-HER2 light chain) VH: EVQLLESGGGLVQPGGSLRLSCAASGFPFGVYAMSWVRQAPGKGLEWVSAISGSGGSTFYADSVKGRFTISRDNSKNTLYLQMNSLRAEDTAVYYCAKRGTYAYSYPTGFDYWGQGTLVTVSS VL: not shown
12 | – | – | – | – | – | – | – | – | – | – | 1.48 | 0.00321 | 2.17e+06 | 2.23 | 0.00121 | 542000 | 4618_5 (antibody, human IgG1, kappa, V domains shown, Human IgG1 with the common anti-HER2 light chain; Library-derived anti-CD38) VH: EVQLLESGGGLVQPGGSLRLSCAASGFPFDAYAMSWVRQAPGKGLEWVSAISGSGGSTYYADSVKGRFTISRDNSKNTLYLQMNSLRAEDTAVYYCAKRGTYAYSFPTGFDYWGQGTLVTVSS VL: not shown
13 | – | – | – | – | – | – | – | – | – | – | 7.43 | 0.0156 | 2.1e+06 | 13.1 | 0.00887 | 675000 | 32218_2 (antibody, human IgG1, kappa, V domains shown, Human IgG1 with the common anti-HER2 light chain; Library-derived anti-CD38) VH: EVQLLESGGGLVQPGGSLRLSCAASGFPFDTYAMSWVRQAPGKGLEWVSAISGSGGSTYYADSVKGRFTISRDNSKNTLYLQMNSLRAEDTAVYYCAKRGTYAYSFPTGFDYWGQGTLVTVSS VL: not shown
14 | – | – | – | – | – | – | – | – | – | – | 4.1 | 0.00496 | 1.21e+06 | 3.61 | 0.00178 | 493000 | 32218_1 (antibody, human IgG1, kappa, V domains shown, Human IgG1 with the common anti-HER2 light chain; Library-derived anti-CD38) VH: EVQLLESGGGLVQPGGSLRLSCAASGFPFGVYAMSWVRQAPGKGLEWVSAISGSGGSTFYADSVKGRFTISRDNSKNTLYLQMNSLRAEDTAVYYCAKRGTYAYSFPTGFDYWGQGTLVTVSS VL: not shown
15 | – | – | – | – | – | – | – | – | – | – | 0.83 | 0.00144 | 1.74e+06 | 0.66 | 0.000295 | 449000 | 4618_5F_12 (antibody, human IgG1, kappa, V domains shown, Human IgG1 with the common anti-HER2 light chain) VH: EVQLLESGGGLVQPGGSLRLSCAASGFPFDAYAMSWVRQAPGKGLEWVSAISGSGGSTFYADSVKGRFTISRDNSKNTLYLQMNSLRAEDTAVYYCAKRGTYAYSYPTGFDYWGQGTLVTVSS VL: not shown
